PMC2757703

Test system: 40S small ribosomal subunit (rabbit reticulocyte lysate) (rabbit)
Assay: sucrose density gradient
Conditions: EMSA: 20 mM Tris pH 7.6, 50 mM KCl, 2.5 mM MgOAc, 0.05% NP40, 1 mM DTT, 1 ug/uL yeast tRNA, 30 C 20 min, gradients: 20 mM Tris-HCl pH 7.5, 100 mM KOAc

Substance	binding signal (% of labeled RNA bound to small subunit)	binding signal (scale: % of labeled RNA in small-subunit fractions)
CrPV IRES RNA	> 50	
GLV IRES RNA		10
